Assay: soluble on expression in E. coli; label from the status in PepcDB or PDB records

Sequence | soluble on expression in E. coli
MTNSEPRRMTCDSEVVWKKLQDGLDVAYRRENMAPKDYMTLYTSVYDYCTSITLSTSRRDGEDGRAESSTPARTAGADFVGHEMYQRVEEYVKAYVIAVCEKGAELSGEDLLKYYTTEWENFRISSKVMDGIFAYLNRHWIRRELDEGHENIYMVYTLALVVWKRNLFNDLKDKVIDAMLELIRSERTGSMINSRYISGVVECLVELGVDDSETDAKKDAETKKLAVYKEFFEVKFLEATRGFYTQEAANFLSNGGNVTDYMIKVETRLNQEDDRCQLYLNSSTKTPLATCCESVLISNQLDFLQRHFGGLLVDKRDDDLSRMFKLCDRVPNGLDELRKSLENHIAKEGHQALERVAMEAATDAKLYVKTLLEVHERYQSLVNRSFKNEPGFMQSLDKAATSFINNNAVTKRAPPQAQLTKSAELLARYCDQLLRKSSKMPDEAELEELQTKIMVVFKYIDDKDVFSKFYTKMFSKRLISELSASDEAEANFITKLKSMCGYEYTARLSKMVNDTQVSKDLTADFKEKKADMLGQKSVEFNVLVLSSGSWPTFPTTPITLPQQLSKTIEIFGQFYNEKFNGRRLTWVYSQSRGEITSTAFPKKYVFTATTAQMCTMLLFNEQDSYTVEQIAAATKMDEKSAPAIVGSLIKNLVLKADTELQKEDEVPMTATVSLNKAYMNKKVRVDLSKFTMKQDAVRDTENVQKNVEEDRKSVISACIVRIMKTRKRVQHQQLMTEVITQLSGRFKPKVEMIKRCIGSLIEKEYMLRTEGQKDLYEYLA | not soluble
MKHTFKLSLLCSAILLAGCGDNTSSSGTTDKVTFESEVQALLDRGTSISFTIQGANADVPAPSYLLMDTSDGTLGLPTNGDDALTNPRASMNTMDGWSTSMPIVLNFNGDGFAPGMLASGVKVIKINQRLTEWDGKTNPIAKVLVQNQDYVVQANGKSLYVQFADSLDESSEYIFAVTQDVTDVNGEPIGTSSSYAVAKSKQVKYESGDLASVQAVTEAVEGIFGLAQVNPADIVYSSWFSTQSVGDTLAAVKGVTATGFATGANTLNTIYKNDTNENAVDLATAYTMVLGETQDFMTALDSDSDFNKYVSDLDAAKTAIKGLYVQSGASVNVTQGQVRLPHYLEKGANWNMQPMVSAMPSLAKLNAALTDPAEQANMVQQLSSGVFASSPVDVSKLATDPTEQLKLVGSKLYLNDGTQLDSERVITRYSPVPEVKSLENVEFLLFTPQNGVAKDVVIYQHGITSAKENAYAFAFNMVQTGVAVIAIDLPIHGTRSLDEQRSANANVLAYLNLSNLAVARDNLRQSVLDVLGLRASLVVSAQGGLLAGGPLQGFNPMTGSQVK | not soluble
MSQAELFTISDLAREFDVTLRTIRFYEEQGLIEPQRDGRQRLFTRRDRGRLKLILRGKRIGLSLAEIREIIDMYQLARDEASQSQKLLDLLLARRRQLEAQRRDIDAVLDEIATLENHCRDVIDSQSSVA | not soluble
MGHHHHHHSHIEETTMTTQTPAPIQAPSAILPLPGQSVERLCVDPRHRQGPVNLLSDPEQGVEVTGQYEREKAGFSWIEVTFKNPLVWVHASPEHVVVTRNRRSSAYKWKETLFSVMPGLKMTMDKTGLLLLSDPDKVTIGLLFWDGRGEGLRLLLRDTDRFSSHVGGTLGQFYQEVLWGSPAASD | not soluble
MGHHHHHHSHNTTKPKSLAVKKAKWHLGIRSQSKPYDIMAEVYRAMKQLDFEWKVVNAYHLRVRRKNPVTGNYVKMSLQLYLVDNRSYLLDFKSIDDEVVEQRSGS | not soluble
MLLQEELEQRTVSVSIQAAKLSGRVLRAAIAAVLQKMEQERTMPKVGRNSMKRLTYKDPGANTIEVSGRIRSFERYARKHQVRYHIEKELGTDPPKWTVYFKANQADALTAAFKEYTKKDLTRSTRPSLLIQLHKFKELAQSLGRDRVKNKEHGGPER | not soluble
SMMDLFETGSYFFYLDGENVTLQPLEVAEGSPLYPGSDGTLSPCQDQMPPEAGSDSSGEEHVLAPPGLQPPHCPGQCLIWACKTCKRKSAPTDRRKAATLRERRRLKKINEAFEALKRRTVANPNQRLPKVEILRSAISYIERLQDLLHRLDQQEKMQELGVDPFSYRPKQENLEGADFLRTCSSQWPSVSDHSRGLVITAKEGGASIDSSASSSLRCLSSIVDSISSEERKLPCVEEVVEK | soluble
MGHHHHHHSHIELVCWYMVDRDSIDDEPVDIAFIEGSVSTEEEVELVKKIRENSKIVVAVGACAVQGGVQSWTDKSLEELWRTVYGDAKVKFKPKKAEPVSKYIKVDYNIYGCPPEKRDFLYALGTFL | not soluble
SLTRAVAALLPDGKRLHLQHGPIDLIIGAEGGPGAREAAFVTATARFETVLAELVGELPLLKTELAPDAPLPLGPVARRMDTACRPLMALRLTRMAAVAGAVADEVLAAMLSSTPLTRAYVNNGGDIALHLTGDTRFTLAMATPDGRDLGRISLGTGDRIGGIATSGLGGRSLSLGIAESVTVLAPSAAGADAAATLIANATDLPGHPAIRRAPANTVKDDSDLGQRPVVTHCGPLDRNEVLHALENGRKLAVEMIANGHIRSAHLSLRGQSCQAGAIPVIAPERRLALA | soluble
MDISRRNFLKSTASFGAIASLGLPGYSLAAPSNDFRALICVYLAGGNDAINTILPLSDFHYNQYANVRGSLSVAKNTIIPIRLNAHDANNNAVPLGLHPKLSALAPLFQQGDANLVLNSGILNQPVTKQAIEQGDVPLPEQLFSHNSQTASWLRGGMDASTNLGWAGRMLDVLTSDAQITPLYSVHGDTLWLKAMEHRQTVLKKDKAVQLTAVGNPLYEEVYQKLLSQSADNPFSGHFNLMVDESMMMSNILAEQLKLIDDAPLFSSSTLGKQMQTVYKLIASQSALSQQRQVFFVKHTGYDLHDSQLARHPLLLEDLATNLNAMYRAVDKLGMSKNVTTFTMSDFGRRMTNNGNGTDHGWGGHQLLIGGAVNGSAPIGTWPELTLGGQDDYSKGRLIPAIAADQVGSTLAQWMGVSDNAALEYVFPNIRNFTTSNLGFMA | not soluble
MPIIASESSHESIPQDFMDAVESMHKAQLRPEISLGTIRPPQRLAPFSHAVGLEVSGTLSDDSQGDAFGRLILLHDPTSDESWDGSMRLVAYIQADMDASVANDPLLPDVAWQWLTEALDKTHADHTNLGGTVTATASVRFGEIGGPPRAYQVEMRASWTATAIDLAPHVSAFAQVLANVAGLSPEGTTSISR | not soluble
ATDTLANEDCFRHESLVPNLDYERFRGSWIIAAGTSEALTQYKCWIDRFSYDDALVSKYTDSQGKNRTTIRGRTKFEGNKFTIDYNDKGKAFSAPYSVLATDYENYAIVEGCPAAANGHVIYVQLRMTLRRFHPKLGDKEMLQHYTLDQVNQNKKAIEEDLKHFNLKYEDLHSTCH | soluble
MGSDKIHHHHHHMLTQDQDQKQRNWKPIIKAFEAVLGTNGVVQRREELITYECDGLTSYRQRPAVAVLPRTTEQVAAVVKICNQYAVPFIARGSGTGLSGGALPSEDSVLIVTSLMRQILNVDLDNQRIVVQPGVINSWVTQTVSGAGFYYAPDPSSQIICSIGGNVAENSGGVHCLKYGVTTNHVLGLKIVTPEGEIVDLGGQIPEAPGYDLTGIFVGSEGTLGIATEITLRILKSAESICVLLADFTSVEAAGATVSDIISAGIIPGGMEMMDNVSINAVEDVVATNCYPRDATAILLVEIDGLDVEVAVNKQRVTDICQQNGARSVTSASDPETRLKLWKGRKAAFAAAGHLSPDYYVQDGVIPRTQLPYVLQEIEALSQKFGYPIANVFHAGDGNLHPLILFDNSISGALEKVEELGGEILKLCVRVGGSISGEHGIGADKKCYMPDMFSDVDLETMQWIRQVFNPQGLANPGKIFPTPRTCGEAANAIKNQHFEGVERF | not soluble
MKEKIPFYNEKEFHDMVKKTKKGTFSGWYIIDKDNKSVEFSGSFNRQFKLNKPVIPVNTEYVTRKEFNEYKVSNDQRLTKIETTLAAQGEQINKLTQTVEKQGEQINQLVQVVLLHGEQINKLTQTVEKQGEQIKELQVEQKAQGEQIKAQGKQIKAQGKTLKSILQALGGINKRLDKIDPPKLEHHHHHH | not soluble
MQRMAKMKAMEKHHGYKVLTMIHRREMISLFGLPAYQSIDEEDAEQVLRWIRKYRDYPLELILHTPGGQLHASIQIARALKNHPKKTRVLIPHYSMSGGTIIALAADEIVMDKDAVIGPIDPQVGDPIRGVFPAPSWIHAAETKKEDADDSTLVMSDISRKALRLTRNVAKELLEGKIQPDGKEDRLEEVVEKLVSGEMIHSTPLSAREAKELGLSVNTDFPEDVHDFMRLFRPVKKTVEYVG | not soluble

— the DeepSol protein solubility set
